These results are taken from patent publication US9957308B2, “Method for detecting bilirubin using a fluorescent protein” (RIKEN, priority 2013, dated 2018).

Changes are numbered by the printed parent chain.

The target in data set [1] is T1, Japanese eel (Anguilla japonica) UnaG, wild type, SEQ ID NO: 1 (Anguilla japonica, UniProt P0DM59).
T1 construct: GST (N, cleaved yes); made in house; host or cells: Escherichia coli BL21 (DE3)
In words: Fluorescence of apo UnaG reconstructed with bilirubin or bilirubin analogs (ligand specificity). It counts as biochemical. To be noted: apo UnaG 0.5 μM; ligand 0.125-2.0 μM; room temperature 30 min; excitation 497 nm, fluorescence 527 nm. As to the method: FIG. 5 is a graph showing specificity of UnaG protein in Example of the present invention to unconjugated bilirubin. Apo UnaG (0.5 μM) was mixed with a ligand: bilirubin (unconjugated) at various concentrations or a bilirubin analog, biliverdin, urobilin, or ditaurobilirubin, at various concentrations, and the fluorescence intensity at each concentration was measured. The vertical axis indicates fluorescence intensity, and the horizontal axis indicates concentration (μM) of each ligand.
Bilirubin or a bilirubin analog, biliverdin (Toronto Research Chemicals), urobilin (MP Biomedicals), or ditaurobilirubin (Frontier Scientific), was diluted with PBS such that the final concentration was 0.125 μM, 0.25 μM, 0.5 μM, 1.0 μM, or 2.0 μM and was mixed with 0.5 μM apo UnaG protein. The mixture was left to stand at room temperature for 30 min. Subsequently, 200 μL of the mixture was added to each well of a 96 well microplate (Greiner Bio-One) and was subjected to measurement of the fluorescence intensity at a wavelength of 527 nm with excitation light having a wavelength of 497 nm using EnSpire multi-mode plate reader (PerkinElmer Co., Ltd.).

Data set [2] deals with T1, Japanese eel (Anguilla japonica) UnaG, wild type, SEQ ID NO: 1. The experiment in a line: Dissociation constant by bilirubin titration of apo UnaG (fluorescence at 527 nm, curve fitting). It counts as binding. Conditions: wild-type apo UnaG 5 nM, titrated with bilirubin to 10 nM. The text has this: The capacity of binding to bilirubin can be evaluated through calculation of dissociation constant (Kd) by curve-fitting of correlation between the amount of bilirubin and the fluorescence intensity of UnaG protein. In one instance, “reduced capacity of binding to bilirubin compared to UnaG” means that the dissociation constant, Kd, is larger than that of UnaG.
The dissociation constant can be calculated by a known method, for example, by the following computation expression: Y=[Kd+Bt+Pt−{(Kd+Bt+Pt}^1/2]/(2×Pt) where Y represents the degree of binding of bilirubin (fluorescence intensity); Kd represents the dissociation constant; Bt represents the concentration of bilirubin; and Pt represents the concentration (5 nM) of apo UnaG protein.
(§1) An apo UnaG protein solution having an apo UnaG protein concentration of 5 nM was titrated with bilirubin to give a final concentration of bilirubin of 10 nM, and the fluorescence spectrum was measured with a fluorescence spectrophotometer.
Apo A12ES80N mutant protein was titrated with bilirubin, and the fluorescence intensity was measured with a spectrophotofluorometer F-2500 (Hitachi High-Technologies Corporation). The results were plotted. Data analysis and fitting with graph plotting software Origin (OriginLab Corporation) were performed to determine the dissociation constant (Kd). […]

The target of data set [3] is T2, Japanese eel (Anguilla japonica) UnaG variant A12ES80N (A12E, S80N), SEQ ID NO: 29 (Anguilla japonica, UniProt P0DM59, A12E/S80N).
T2 construct: made in house; host or cells: Escherichia coli JM109 (DE3)
T2 sequence (P0DM59 whole entry A12E/S80N): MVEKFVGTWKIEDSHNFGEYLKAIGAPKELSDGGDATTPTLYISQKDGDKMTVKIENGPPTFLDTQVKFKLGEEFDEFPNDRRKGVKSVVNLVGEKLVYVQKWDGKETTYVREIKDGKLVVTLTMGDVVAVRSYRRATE
In words: Dissociation constant by bilirubin titration of apo A12ES80N mutant (fluorescence, curve fitting). It counts as binding. As to the method:
as §1
A DNA fragment of A12ES80N mutant was ligated into BamHI and EcoRI restriction enzyme sites of pRSETB-FLAG vector, which was Escherichia coli expression vector pcRSETB including a FLAG tag sequence (SEQ ID NO: 26) at the KpnI/BamHI restriction enzyme sites, and was transformed into Escherichia coli strain JM109 (DE3) for subcloning. […]
The bacterial cells were suspended in 5 mL of PBS, and 50 μL of lysozyme (4 mg/mL) was added thereto. […] Subsequently, His-FLAG-UnaG mutant protein was eluted by adding each 500 μL of PBS containing 300 mM imidazole to the carrier, and the elution fraction was detected by a bradford method. […] The concentration of the purified His-FLAG-UnaG mutant protein was determined by the following computation expression based on the absorbance A280. […]
Apo A12ES80N mutant protein was titrated with bilirubin, and the fluorescence intensity was measured with a spectrophotofluorometer F-2500 (Hitachi High-Technologies Corporation). […]

Data set [4] is described as follows: Measurement of fluorescence spectrum, absorption spectrum, quantum yield and fluorescence lifetime. It counts as physicochemical. As to the method:
In order to analyze the fluorescent properties of UnaG protein, the fluorescence spectrum, absorption spectrum, and quantum yield were measured. The excitation spectrum and the fluorescence spectrum were measured with a spectrophotofluorometer, RF-5300PC (Shimadzu Corporation), at an excitation wavelength of 475 nm and a fluorescence wavelength of 550 nm. The absorption spectrum was measured with a spectrophotometer, U-2900 (Hitachi High-Technologies Corporation). The quantum yield was measured with an absolute quantum yield measurement system, Quantaurus-QY (Hamamatsu Photonics K.K.) at excitation wavelengths of 470 nm and 480 nm. A known fluorescent protein, EGFP, was similarly measured, and the values were compared to those of UnaG protein.
In order to analyze the fluorescent properties of R82EK84E mutant, the fluorescence spectrum, absorption spectrum, and quantum yield were measured. The measurement was performed by the same method as that described in the above-described paragraph 3. The fluorescence lifetime was measured with a small-sized fluorescence lifetime measurement system, Quantaurus-Tau (Hamamatsu Photonics K.K.) and was compared to that of wild-type UnaG protein.
The fluorescence spectrum, absorption spectrum, and quantum yield (excitation wavelength: 470 nm) were measured for analyzing the fluorescent properties of holo A12ES80N mutant protein. The measurement was performed by the same method as that described in paragraph 3, above. The fluorescent properties were compared to those of wild-type UnaG protein.

Data set [5] is described as follows: Evaluation of aggregability of protein by dynamic light scattering particle diameter. It counts as physicochemical. As to the method:
Protein solutions (each 20 μL) of wild-type UnaG protein (10 mg/mL) and R82EK84E mutated UnaG protein (8.5 mg/mL) were each supplied to Microtrac particle size analyzer MT3000II (Nikkiso Co., Ltd.), and the particle diameters were measured by a dynamic light scattering. The aggregability was evaluated by plotting frequency against particle diameter.

The mark [6] stands for this setting: Table 3, wild-type vs R82EK84E mutant.
The mark [7] stands for this setting: Table 3, wild-type vs R82EK84E mutant, holo form reconstructed with bilirubin.
Where [8] appears, read: Table 4, wild-type vs holo A12ES80N mutant.

T1 sequence (P0DM59 whole entry): as the sequence (P0DM59 whole entry A12E/S80N) above, with E12A, N80S counted along it

For the molecule `C=CC1=C(C)/C(=C/c2[nH]c(Cc3[nH]c(/C=C4\NC(=O)C(C)=C4C=C)c(C)c3CCC(=O)O)c(CCC(=O)O)c2C)NC1=O` [bilirubin], the “fluorescence emission of UnaG on addition of ligand” value in data set [1] is “the fluorescence of UnaG is specific to bilirubin”. The figures for the Kd in data set [2] and in data set [3] were 0.098 nM and 1.9 nM, respectively.

B1: R82EK84E mutant: UnaG with 82nd amino acid R and 84th amino acid K substituted by E; SEQ ID NO: 5 (protein, listed as Anguilla japonica)
chain: MVEKFVGTWKIADSHNFGEYLKAIGAPKELSDGGDATTPTLYISQKDGDKMTVKIENGPPTFLDTQVKFKLGEEFDEFPSDEREGVKSVVNLVGEKLVYVQKWDGKETTYVREIKDGKLVVTLTMGDVVAVRSYRRATE
Regarding B1, in data set [4] (setting [6]), the Molar extinction coefficient is 50,870 M^−1 cm^−1 and the Quantum yield was found to be 61%. In data set [4] (setting [7]), the Maximum excitation wavelength was found to be 498 nm and the Maximum fluorescence wavelength was determined as 527 nm. In addition, the “Fluorescence lifetime (τ1/ns)” value in data set [4] (Table 3, wild-type vs R82EK84E mutant, Quantaurus-Tau) was determined as 2.2 ns. Further, the “dispersibility / aggregation compared to the wild-type” value in data set [5] is recorded as “improved dispersibility”. Also, the “particle diameter distribution (peaks)” value in data set [5] (wild-type 10 mg/mL, R82EK84E mutant 8.5 mg/mL) is given as “single peak”.

B2: A12ES80N mutant: UnaG variant with substitution of A at 12th position to E and S at 80th position to N; SEQ ID NO: 29 (protein, listed as Anguilla japonica)
chain: B1 chain with A12E, S80N, E82R, E84K
With B2, in data set [4] (setting [8]), the Maximum excitation wavelength was 499 nm, the Maximum fluorescence wavelength is listed as 527 nm and the Molar extinction coefficient is listed as 56,210 M^−1 cm^−1. In data set [4] (Table 4, excitation wavelength 470 nm), this molecule gave a Quantum yield of 46.8%.
